Test results from a protein production outcome set (Wang et al. 2014).

Assay: label from the status in PepcDB records

Sequence: MFVVAVANTKGGCGKTTLATHLAASFACRGYATGLADLDRQKSALGWLKRRPEGAAPIQGINLAREEDIPEGIERLVVDAAAAMDKDVVKDIVRRADLVVVPVLPGVFDEDGTARFVGHLESLKSIRKNRRDVAFVANRVRLNTRALTRLGGFLEELSFPVIARLRDTQHYTAAAAEGLSLFDLPGGRAADYRAEWTPLLDFIEIRVRGLEHHHHHH
- protein production: not failed

Sequence: MDKLNKITVPASQKLRQLQKMVHDIKNNEGGIMDKIKKLKVKGPPSVPRRDYALDSPADEEEQWSDDFDSDYENPDEHSDSEMYVMPAEETGDDSYEPPPAEQQTRVVHPALPFTRGEYVDNRSSQRHSPPFSKTLPSKPSWPSAKARLASTLPAPNSLQKPQVPPKPKDLLEDEADYVVPVEDNDENYIHPRESSPPPAEKAPMVNRSTKPNSSSKHMSPPGTVAGRNSGVWDSKSSLPAAPSPLPRAGKKPATPLKTTPVPPLPNASNVCEEKPVPAERHRGSSHRQDTVQSPVFPPTQKPVHQKPVPLPRFPEAGSPAADGPFHSFPFNSTFADQEAELLGKPWYAGACDRKSAEEALHRSNKDGSFLIRKSSGHDSKQPYTLVAFFNKRVYNIPVRFIEATKQYALGKKKNGEEYFGSVVEIVNSHQHNPLVLIDSQNNTKDSTRLKYAVKVS
- protein production: not failed

Sequence: MTSSFTDYCKFFNRILSEVQETQEQAIIKGAHLVSEAVMNGGRFYVFGSGHSHMIAEEIYNRAGGLALVTAILPPELMLHERPNKSTYLERIEGLSKSYLKLHQVTNKDVIMIISNSGRNTVPVEMAIESRNIGAKVIAMTSMKHSQKVTSRHKSGKKLYEYADVVLDNGAPVGDAGFQIANSEIYSGATSDSIGCFLAQALIVETLHLLVQQGFEPPVFKSSNVDGADLYNDKIFNEYVKW
- protein production: not failed

Sequence: MEKKLTVNVSDTERIASVLAGSYFMYRSLKRQPKNYAAIASAGLLLFRGVTGHCPGYSAAGKKTLPAPVHNIDIETSVIVNRPVDTVYSFWRRLENLPLFMTHLKSVKQKDHNKSDWEAYLPGGIGSIHWEAKIVKDKPGKVIAWSSLENSTIHNAGKVMFEDIGELGTVINVVISYQAPLGVAGEKVLALLTPTFEKMIRKDIVNFKQYIETGKLPTDKEYAENGKSQFE
- protein production: failed

Sequence: MKKLVLTGAAGRLGSYLREPLTALCDTLVSTDIVDDIGTLYAGETYVKADLAQMDQIAPVLEGADMVVHFGAIVDEKPFEELLGPNFVGSYNIWEAGYKAGVKRIVYASSIHAVGMHLKSDFIGIDAEHRPDTFYGLAKCFTEDLGRMYWDKRGLESVHLRILSCAQVNNTRALGSWLSYPDLIQLVTRAIDTPSVGFSIIYGVSNNDRAPVDNAKASFLGYRPIDNAEVYAAEVLAQAEPVDTTDPGQMCHGGPFAKVDLGQSGLAQMNVVNDKKQT
- protein production: failed

Sequence: MFMYTEFRSQLLAGAGTSAAGQSARMAVLAGDGATGVQVSCVVPGLNEAANLRVLVPALRACLEQWCASWEIIVVDDGSTDDTAELMAQWSAVEGIRYVQLSRNFGKEAALTAGLEAADGDAVICLDADMQHPPELIGDMLAAWRNGADMVYAVRRQRDDEPWFKRVGARAFYRLLSTARGVEVPPHAGDFRLMDRRVVEALVALPERTRFMKGLYAWVGFKSQAVPYTPQARRHGASHFSAWKLFRLACDGLTAFTTWPLRLVSLIGVLFALLSLSYGGYLVADYLISGNAVSGWTTIVTALLFFAGINLISLGVVGEYVARIFDEVKGRPLFIARQRRGRAKRAAKARSQ
- protein production: failed

Sequence: MDLELDEYYNKTLATENNTAATRNSDFPVWDDYKSSVDDLQYFLIGLYTFVSLLGFMGNLLILMALMKKRNQKTTVNFLIGNLAFSDILVVLFCSPFTLTSVLLDQWMFGKVMCHIMPFLQCVSVLVSTLILISIAIVRYHMIKHPISNNLTANHGYFLIATVWTLGFAICSPLPVFHSLVELQETFGSALLSSRYLCVESWPSDSYRIAFTISLLLVQYILPLVCLTVSHTSVCRSISCGLSNKENRLEENEMINLTLHPSKKSGPQVKLSGSHKWSYSFIKKHRRRYSKKTACVLPAPERPSQENHSRILPENFGSVRSQLSSSSKFIPGVPTCFEIKPEENSDVHELRVKRSVTRIKKRSRSVFYRLTILILVFAVSWMPLHLFHVVTDFNDNLISNRHFKLVYCICHLLGMMSCCLNPILYGFLNNGIKADLVSLIHCLHM
- protein production: failed

Sequence: GERRIPESRILRREVVEATSAVAAALQIPARAPVIEMTRVRLIDGAPMLAEEIWLPYDRFAAFSRLELDSIGDLLYPVYEAHCNQIVASATETLTVEAIGPAHARLLRIEPGTPAVVIERLAYGYDRRPLEWRRSRGPASEFIYQAEIR
- protein production: failed

Sequence: MWYDYRFCAYPDRTGVAAEAERHIDIHRQAYNHTRYEYNALDTDEDNIGSAYQHQKRLTEWKDEWSVFSEVHSKALQKTVERFYDNLSNLSEKKQNGHKVGWLKWKPPREYQSVTYSQSGFELKNTSGRTATLWLSKIGDIPIRYHRPIPDNATIKEVTLKKETTGEWYVTFGLEVEDTTLPEKPDVDDLDAEDCVGIDLGITNYIYTSDGDSVDWLNLSDEYERLRREQRNLSRKEHRSNNWKKQRREVAKVKRRIKRKVEDFQHKLTTWLVKTYDAVFVEDLNVSGMLQQRGNARNKQDAAWRGFINMLEYKGDLYGTHVVQVNPAGTTKECAECGVETEKPLWVREHSCPSCGFEADRDANASYNVLSRGLRELGLGQAEVTPVETATAVETDGGRSSSVPASRVIETGSLGVVRKTESSVMTRDEVPRTT
- protein production: failed

Sequence: MSESNISGPLAGEYRDLAVYGRLATVTMIWGGTFVAGRYLAGGLSPLLAASLRFLLASLALLGFMAVARIPLVRPSLRQFGQLALLGFFGIFFYNLCFFLGLEQVKASRASLIVALNPAVIALASWALFKERLGRRKLLGIALCLCGAALVICSRDPSALAAQAGSWQGDLLILGCVLGWGVYSLFSRGLNHSLGSLQTVTCSILLGTLMLCAATLIRGEFDLQAVARLNLAQGLSLLYLGVLGSALAYIWYYDGLRRIGATRCGVFIALNPLTAVILGALVLGEQLSPVMGLGGALILGGIYQCNKPLAGGAKKAIL
- protein production: failed

Sequence: MASRIIFLFSLLIMLGLATGLRGFSALLGFLAFLLLLIIVCQQYRRFLLLFLAILLFLCAWLYGVVQERQNETQLYPLVQSVEGTLISDPELDGDQFSATVKTTDGEKVLIRGRVQAEAEKDKLEMTQIGMVCSFVGQLEIPSEPTNPYQFNYRQFLDNNRIHWIFRTDLTQWQCSDQPTTLFMKVKRWRSEQLQDIYDLASDETAGLIAAFVYGDRSELDGELLSAYQSLGVIHLLAVSGLHVGLVVAAVFYLFIRLGVTRERAYELLLLFLPFYAIVAGAAPSVVRAVGMTMTVLLAFRFQKRLAPIIVLSLVAVIYIIIEPYAIFQLGFQLSFLTTCALLLSSSTLLQAINRPLLSLVKVTFLAQLISMPVILYHFFELPILSVPLNLLFVPVVSFVLLPLSFFVASSLLIHPGVAELPLFILEIIVPIVHQLLLVLNEQSFAAVVIGKPSLNSVFLMMISLIIGWAWLERKEPFKAWGAFSVVLFLIAWQIYSPYWSNEAIVTMIDVGQGDSFLIELPRRKAVYMIDTGGWVTYGEMEPWQERRNTRDIGEQVLTPILKGKGIRGIDKLILTHGHEDHFGGAEGLVRSIKVDEVVYGYKHAEYTEREMEVLSALKKAGASIRFVKSGDQWVIGSSSFRVLSPFGDEEELNDQSVVVYAVIEGVRFLFTGDLEEVGEKRLLEGYGDLKADVLKVGHHGSATSTTDPFLEAVHPVVALISAGRNNLYGHPNQDVLAALEQHETFVLRTDLHGAVKLTIRDGGIYARVMTTD
- protein production: failed

Sequence: MPARPGAARERIRSTAAPAVGEKVLNALRDLPAGMIYTLGAKPTVLRGLALAIEKRVKGIDWSPDGATLFAEVMDGSRHHEVRLEANGGFLTPSCDCPLWRPTGHCPHVIAALAVLKKGLVHQAITSLRLDSDYLAEVSGWLSGVEAAQPTAPAVPRLVVERGADGIQARIWLGEHPVSIHDQALPRTVRDFLWTLLNPRESGFIIERYLEAFGDDAPMALRQDDNEIPLRFDRGRVHGTLTLLEQVRGMVIARKGLEDGHPIPDTCFAAYRYYFDIPAGAVRVIDSFEGWDLWNTINYEAAEWSLDTGVSVERNSRTISLPADAFNAIGLTVTEKGLPTILERIRFYGAGGPGEPARITHNYRLRVADMNDTTALLLAEGVYGDAAIPLSAGAFSFFTSRGRSTASVPLRTKKRSSAVIAGCFAALDCVTRAELERTIRHALAGDDFLKRTVKSEAKRIITAFAAACETRETTLLAADGAWLISVAEPKVEAQLLEIPYRLFGAEIFGSSDLAGAMTVNRDALFRQFPALHNRLAEAGFDLVLQDRPVEAVTLDVTLDATRSTLDWFELRPEIRCGTGELTEQEIAEAMASGGVFRRGDSFLLINEESSRILAMLYPEAGVKKRRKAEVVRIPRLQILDWLVLRHHGVSVRLSPEDERIFASLATFEEIPSSPLPERLQATLRHYQVDAFHWLAFLYTHRFGACLADDMGLGKTIQAISLLAALHEGTLPSRVPEPRPHLIVVPPSLLFNWENELARFYPAFTVLTYRGTGRSADFTGVDIVLTSYGIIPRDIGILAEIPFHCIVFDEAQAVKNIQADTTGACRRLRGAFTLCLTGTPVENHLGEYFSVMDLAVPGLLGSYEEFRRQAGNAAAPFLETLVRRTRPFVLRRSKQMIAAELPPKIETDIYLELTPRQKALYTRTVEEVRETVLEAWRGKSPGQARIIALTAILRLRQLCLSPRLLIADSREPSPKVEFLVEQLEELFTEGHSVLVFSQFTSFLDIVEGELSRRGVHYYRLDGSTPVPERKRLVTAFQKGDEPSVFLLSLKAGGKGLNLTRATYVFHLDPWWNPAVENQASDRAHRIGQTRQVTITRLVMRHTIEEKMMELKKRKLKLYHALLEENSAGDGGGISREDFEFLLG
- protein production: failed

Sequence: PMVLVVLDHDGNRLKKGSLEALTRARDLAQALGGKVAGVLLAEEKAPVEEARKYVEVLYTATLGPYTAEKWAAGVLKAAEASGAKAVVAPSSRQSRAYLGRVAYALRAGLLEDTLESRVEGGEVHATRYAYLNRVTQRVKAALPVVLTVKPNTTPLAEPLPGEAEAVALSVPEVPTVEVLERLQEEKKGVS
- protein production: failed

Sequence: MRGFFSNPWIRWALSLAFLGVILFFLRDQLDFLKMGIQQIRHVSPVGVALTMVALVLSFVAMARVMQIMLKAGGSPATLKATTALTFAANSWSATLPGGPAFSAILTYKVQRSWGASAVLCSWFFLLSSALSTVWLVALGVIAVFYMGASLNLWSLIATFIAMVGLSGAVYWAANNPDSLARWVRKLTKNREWGFVEKLLGSIEQLRSVSLTGPQFAASTAWSLGNRLFDAISLWICIWAVTGTAPMFEPEPNNTTIAGVLLAYTTAKIAGSIQATPGGIGPIEAAYIAALVATGMTAVEAAGAVIIYRLCSFIIMAIVGWVIYFIYFTPQGLKANESLDVEQDTINSDSNRQSAIERPDT
- protein production: failed

Sequence: MAGRQPGGAAMKALLHGIAEGNGRTLRNLLGLLIFIGGGYLLGRHALLLAELNLPAPIVLALKGGLLCAFGTALGAMPVLVVKTMPARLSDALLGFGAGVMLSATAFSLIMPALSAAGDLGYSKFGAGFLVSFGLAVGVMGLFILGRLMPDVHPGCEGAPLSGGIPPRILLFVTAIVLHNIPEGMAVGVSAGAGLDEANGLALGIALQDVPEGLVVALVLAGVGMSRFKAMLVGAASGLVEPLFAVLCAWLVGLSALLLPWGLAAAAGAMLFVVTHEIIPESHRQGHAAEATLGLVFGFCLMMVLDTALG
- protein production: failed

Sequence: MPRYQATLLIELKKGILDPQGRAVEGVLKDLGHPVEEVRVGKVLEIVFPAENLLEAEEKAKAMGALLANPVMEVYALEALKELP
- protein production: not failed

Sequence: MRGEFYQQLTNDLETARAEGLFKEERIITSAQQADITVADGSHVINFCANNYLGLANHPDLIAAAKAGMDSHGFGMASVRFICGTQDSHKELEQKLAAFLGMEDAILYSSCFDANGGLFETLLGAEDAIISDALNHASIIDGVRLCKAKRYRYANNDMQELEARLKEAREAGARHVLIATDGVFSMDGVIANLKGVCDLADKYDALVMVDDSHAVGFVGENGRGSHEYCDVMGRVDIITGTLGKALGGASGGYTAARKEVVEWLRQRSRPYLFSNSLAPAIVAASIKVLEMVEAGSELRDRLWANARQFREQMSAAGFTLAGADHAIIPVMLGDAVVAQKFARELQKEGIYVTGFFYPVVPKGQARIRTQMSAAHTPEQITRAVEAFTRIGKQLGVIA
- protein production: not failed
